Measurements as given in US20120058906A1.

How the values were obtained:
[1] = target: rHuman CD44/Fc Chimera, CF (R&D Systems Cat#3660-CD) (human) (UniProt P16070); test: MSD ECL multi-spot plate; Fab 230 nM; blank spot 1656
[2] = target: rHuman EGF R/Fc Chimera, CF (R&D Systems Cat#344-ER) (human) (UniProt P00533); test: as above
[3] = target: rHuman ErbB2/Fc Chimera, CF (R&D Systems Cat#1129-ER) (human) (UniProt P04626); test: as above
[4] = target: rHuman Erythropoietin R/Fc Chimera, CF (R&D Systems Cat#963-ER) (human) (UniProt P19235); test: as above
Chain of rHuman Erythropoietin R/Fc Chimera, CF (R&D Systems Cat#963-ER) (human) (P19235 25-250, change not shown): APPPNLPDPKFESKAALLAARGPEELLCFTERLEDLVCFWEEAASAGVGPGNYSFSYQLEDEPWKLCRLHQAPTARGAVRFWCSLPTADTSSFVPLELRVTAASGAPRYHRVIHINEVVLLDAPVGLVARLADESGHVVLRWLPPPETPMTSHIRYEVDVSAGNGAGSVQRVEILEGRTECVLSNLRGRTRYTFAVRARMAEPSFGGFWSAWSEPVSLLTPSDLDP

[5] = target: rHuman HGF R/c-MET/Fc Chimera, CF (R&D Systems Cat#358-MT/CF) (human) (UniProt P08581); test: as above
[6] = target: rHuman IGF-1 sR (IGF-1 sR), CF (R&D Systems Cat#391-GR) (human) (UniProt P08069); test: as above
[7] = target: rHuman CD44/Fc Chimera, CF (R&D Systems Cat#3660-CD) (human) (UniProt P16070); test: MSD ECL multi-spot plate; Fab 57.5 nM; blank spot 954
[8] = target: rHuman EGF R/Fc Chimera, CF (R&D Systems Cat#344-ER) (human) (UniProt P00533); test: as above
[9] = target: rHuman ErbB2/Fc Chimera, CF (R&D Systems Cat#1129-ER) (human) (UniProt P04626); test: as above
[10] = target: rHuman Erythropoietin R/Fc Chimera, CF (R&D Systems Cat#963-ER) (human) (UniProt P19235); test: as above
[11] = target: rHuman HGF R/c-MET/Fc Chimera, CF (R&D Systems Cat#358-MT/CF) (human) (UniProt P08581); test: as above
[12] = target: rHuman IGF-1 sR (IGF-1 sR), CF (R&D Systems Cat#391-GR) (human) (UniProt P08069); test: as above
[13] = target: rHuman CD44/Fc Chimera, CF (R&D Systems Cat#3660-CD) (human) (UniProt P16070); test: MSD ECL multi-spot plate; Fab 920 nM; blank spot 4082
[14] = target: rHuman EGF R/Fc Chimera, CF (R&D Systems Cat#344-ER) (human) (UniProt P00533); test: as above
[15] = target: rHuman ErbB2/Fc Chimera, CF (R&D Systems Cat#1129-ER) (human) (UniProt P04626); test: as above
[16] = target: rHuman Erythropoietin R/Fc Chimera, CF (R&D Systems Cat#963-ER) (human) (UniProt P19235); test: as above
[17] = target: rHuman HGF R/c-MET/Fc Chimera, CF (R&D Systems Cat#358-MT/CF) (human) (UniProt P08581); test: as above
[18] = target: rHuman IGF-1 sR (IGF-1 sR), CF (R&D Systems Cat#391-GR) (human) (UniProt P08069); test: as above
[19] = target: rHuman CD44/Fc Chimera, CF (R&D Systems Cat#3660-CD) (human) (UniProt P16070); test: MSD ECL multi-spot plate; Fab 14.375 nM; blank spot 738
[20] = target: rHuman EGF R/Fc Chimera, CF (R&D Systems Cat#344-ER) (human) (UniProt P00533); test: as above
[21] = target: rHuman ErbB2/Fc Chimera, CF (R&D Systems Cat#1129-ER) (human) (UniProt P04626); test: as above
[22] = target: rHuman Erythropoietin R/Fc Chimera, CF (R&D Systems Cat#963-ER) (human) (UniProt P19235); test: as above
[23] = target: rHuman HGF R/c-MET/Fc Chimera, CF (R&D Systems Cat#358-MT/CF) (human) (UniProt P08581); test: as above
[24] = target: rHuman IGF-1 sR (IGF-1 sR), CF (R&D Systems Cat#391-GR) (human) (UniProt P08069); test: as above
[25] = target: rHuman EGF R/Fc Chimera, CF (R&D Systems Cat#344-ER) (human) (UniProt P00533); test: MSD ECL multi-spot assay, antigen spotted on plate, Fab 0.93 uM; blank spot 4760

ECL signal [1]: 3820 ECL signal
ECL signal [2]: 5720 ECL signal
ECL signal [3]: 4080 ECL signal
ECL signal [4]: 6950 ECL signal
ECL signal [5]: 3930 ECL signal
ECL signal [6]: 4760 ECL signal
ECL signal [7]: 2310 ECL signal
ECL signal [8]: 3860 ECL signal
ECL signal [9]: 2450 ECL signal
ECL signal [10]: 4040 ECL signal
ECL signal [11]: 2300 ECL signal
ECL signal [12]: 2830 ECL signal
ECL signal [13]: 9700 ECL signal
ECL signal [14]: 13400 ECL signal
ECL signal [15]: 10900 ECL signal
ECL signal [16]: 16400 ECL signal
ECL signal [17]: 10700 ECL signal
ECL signal [18]: 10200 ECL signal
ECL signal [19]: 1490 ECL signal
ECL signal [20]: 2670 ECL signal
ECL signal [21]: 1590 ECL signal
ECL signal [22]: 2720 ECL signal
ECL signal [23]: 1600 ECL signal
ECL signal [24]: 1750 ECL signal
ECL signal [25]: 15600
Substance: Fab VH1-46_IGHD3-10*01_IGHJ4*01 & L12_IGKJ1*01
